Laboratory results: US20140348865A1, “[…] ON AN HIV-1 V1V2 SITE-OF-VULNERABILITY” (The United States of America, as represented by the …, priority 2011, published 2014)

B1: PG9e-ferritin (ZM109): ferritin particle displaying the minimal PG9 epitope (gp120 154-177) of HIV-1 strain ZM109 (protein)
chain: MLSKDIIKLLNEQVNKEMQSSNLYMSMSSWCYTHSLDGAGLFLFDHAAEEYEHAKKLIIFLNENNVPVQLTSISAPEHKFEGLTQIFQKAYEHEQHISESINNIVDHAIGVKHSSFNITTDVKDRKQKVNATFYGKDHATFNFLQWYVAEQHEEEVLFKDILDKIELIGNENHGLYLADQYVKGIAKSRKS
B2: PG9e-encapsulin (ZM109): encapsulin particle displaying the minimal PG9 epitope (gp120 154-177) of HIV-1 strain ZM109 (protein)
chain: MEFLKRSFAPLTEKQWQEIDNRAREIFKTQLYGRKFVDVEGPYGWEYAAHPLGEVEVVKHSSFNITTDVKDRKQKVNATFGLRKSLPLIELRATFTLDLWELDNLERGKPNVDLSSLEETVRKVAEFEDEVIFRGCEKSGVKGLLSFEERKIECGSTPKDLLEAIVRALSIFSKDGIEGPYTLVINTDRWINFLKEEAGHYPLEKRVEECLRGGKIITTPRIEDALVVSERGGDFKLILGQDLSIGYEDREKDAVRLFITETFTFQVVNPEALILLK
B3: 2zjr_a: minimal PG9 epitope-scaffold, SEQ ID NO: 17, native scaffold PDB 2ZJR (protein)
chain: SHYDILQAPVISEKAYSAMERGVYSFWVSPGATKTEIKDAIQQAFGVRVIGISVKHCSFNITTDVKDRKQKVNATFAIVRLAEGQSIEALAGQ
modifications: Human immunodeficiency virus
B4: 2ZJR: 2ZJR epitope-scaffold of FIG. 58; legend leaves open whether 2ZJR_A or 2ZJR_B (protein)
chain: SHYDILQAPVISEKAYSAMERGVYSFWVSPGATKTEIKDAIQQAFGVRVIGISVKHCSFNITTDVKDRKQKVNATFAIVRLAEGQSIEALAGQ
B5: 3pyr_a: minimal PG9 epitope-scaffold, SEQ ID NO: 76, native scaffold PDB 3PYR (protein)
chain: MKTAYDVILAPVLSEKAYAGFAEGKYTFWVHPKATKTEIKNAVETAFKVKVVKVNTKHASFNITTDVKDRKQKVNATFAIVQVAPGQKIEALEGLIG
modifications: Human immunodeficiency virus
B6: 1x3e_C: minimal PG9 epitope-scaffold, SEQ ID NO: 68 in Table 2 (SEQ ID NO: 67 in b296), native scaffold PDB 1X3E (protein)
chain: GDTTITVVGNLTADPELRFTPSGAAVANFTVASTGSALFLRCNIWREAAENVAESLTRGSRVIVTGRLCVKHASFNITTDVKDRKQKVNATFYCVEVDEIGPSLR
modifications: Human immunodeficiency virus
B7: 1x3e_a: minimal PG9 epitope-scaffold, SEQ ID NO: 66, native scaffold PDB 1X3E (protein)
chain: GDTTITVVGNLTADPELRFTPSGAAVANFTVASTGSALFLRCNIWREAAENVAESLTRGSRVIVTGRLKVKHCSFNITTDVKDRKQKVNATFYEVEVDEIGPSLR
modifications: Human immunodeficiency virus
B8: 2vxs_a: minimal PG9 epitope-scaffold, SEQ ID NO: 37, native scaffold PDB 2VXS (protein)
chain: TNPKRSSDYYNRSTSPWNLHRNEDPERYPSVIWEAKCRHLGCINADGNVDYHMNSISQNITTDVKDRKQKVNATCTCVTPIVH
modifications: Human immunodeficiency virus
B9: 2f7s_B: minimal PG9 epitope-scaffold, SEQ ID NO: 52, native scaffold PDB 2F7S (protein)
chain: DYDYLIKLLALGDSGVGKTTFLYRYTDNKFNPKFITTVGIDVKHASFNITTDVKDRKQKVNATFYDTAGQERFRSLTTAFFRDAMGFLLMFDLTSQQSFLNVRNWMSQLQANAYCENPDIVLIGNKADLPDQREVNERQARELADKYGIPYFETSAATGQNVEKAVETLLDLIMKRMEQCVE
modifications: Human immunodeficiency virus
B10: 2f7s_C: minimal PG9 epitope-scaffold, SEQ ID NO: 53, native scaffold PDB 2F7S (protein)
chain: DYDYLIKLLALGDSGVGKTTFLYRYTDNKFNPKFITTVGICVKHASFNITTDVKDRKQKVNATFYCTAGQERFRSLTTAFFRDAMGFLLMFDLTSQQSFLNVRNWMSQLQANAYCENPDIVLIGNKADLPDQREVNERQARELADKYGIPYFETSAATGQNVEKAVETLLDLIMKRMEQCVE
modifications: Human immunodeficiency virus
B11: 1vh8_c: minimal PG9 epitope-scaffold, SEQ ID NO: 65, native scaffold PDB 1VH8 (protein)
chain: SLIRIGHGFDVHAFGKHASFNITTDVKDRKQKVNATFGFIAHSDGDVALHALTDAILGAAALGDIGKLFPKNADSRGLLREAFRQVQEKGYKIGNVDITIIAQAPKMRPHIDAMRAKIAEDLQCDIEQVNVKATTTEKLGFTGRQEGIACEAVALLIRQ
modifications: Human immunodeficiency virus
B12: 1vh8 b: minimal PG9 epitope-scaffold, SEQ ID NO: 64, native scaffold PDB 1VH8 (protein)
chain: SLIRIGHGFDVHAFVKHASFNITTDVKDRKQKVNATFYFIAHSDGDVALHALTDAILGAAALGDIGKLFPKNADSRGLLREAFRQVQEKGYKIGNVDITIIAQAPKMRPHIDAMRAKIAEDLQCDIEQVNVKATTTEKLGFTGRQEGIACEAVALLIRQ
modifications: Human immunodeficiency virus
B13: 1vh8_a: minimal PG9 epitope-scaffold, SEQ ID NO: 63, native scaffold PDB 1VH8 (protein)
chain: SLIRIGHGFDVHAFVKHCSFNITTDVKDRKQKVNATFYFIAHSDGDVALHALTDAILGAAALGDIGKLFPKNADSRGLLREAFRQVQEKGYKIGNVDITIIAQAPKMRPHIDAMRAKIAEDLQCDIEQVNVKATTTEKLGFTGRQEGIACEAVALLIRQ
modifications: Human immunodeficiency virus
B14: 1t0a_a: minimal PG9 epitope-scaffold, SEQ ID NO: 77, native scaffold PDB 1T0A (protein)
chain: KIRIGHGFDVHKFGKHASFNITTDVKDRKQKVNATFGLVAHSDGDVVLHAISDAILGAMALGDIGKHFPDTDAAYKGADSRVLLRHCYALAKAKGFELGNLDVTIIAQAPKMAPHIEDMRQVLAADLNADVADINVKATTTEKLGFTGRKEGIAVEAVVLLSRQG
modifications: Human immunodeficiency virus
B15: 2zjr_b: minimal PG9 epitope-scaffold, SEQ ID NO: 18, native scaffold PDB 2ZJR (protein)
chain: SHYDILQAPVISEKAYSAMERGVYSFWVSPGATKTEIKDAIQQAFGVRVIGISTKHASFNITTDVKDRKQKVNATFAIVRLAEGQSIEALAGQ
modifications: Human immunodeficiency virus
B16: 1YN3_A: minimal PG9 epitope-scaffold, SEQ ID NO: 28, native scaffold PDB 1YN3 (protein)
chain: GSHVSFNITTDVKDRKQKVNATFYKNQNISYKDLEGKVKSVLESNRGITDVDLRLSKQAKYTVNFKNGTKKVIDLKSGIYTANLINSSDIKSININID
modifications: Human immunodeficiency virus

test system: PG16; assay: Immunoprecipitation of protein nanoparticles with PG16; type: binding, human; conditions: Protein A agarose, SDS-PAGE, Coomassie stain
Description: (§1) The minimal PG9 epitope (residues 154-177) or variations thereof, were inserted or fused to ferritin, encapsulin or SOR genes using the schemes shown in FIG. 59. The expression plasmids were transfected into HEK293 cells grown in the presence of swainsonine, or transfected into HEK293 GnTI^−/− cells. Particles were purified from the media using lectin affinity chromatography (snow drop lectin from Galanthus nivalis) followed by size-exclusion chromatography. Binding experiments were performed by incubating purified particles or particle-containing expression supernatant with the listed antibodies (PG9, PG16, VRC01) and Protein A agarose resin. After this incubation, the resin was pelleted and washed several times, and then incubated with SDS-containing buffer at 100 C. The solubilized and denatured proteins were separated by SDS-PAGE and visualized with Coomassie stain.

Molecule | immunoprecipitation by PG16
B1 | interacts

test system: PG9; assay: Immunoprecipitation of protein nanoparticles with PG9; type: binding, human; conditions: Protein A agarose, SDS-PAGE, Coomassie stain
Description: as §1

Molecule | immunoprecipitation by PG9
B2 | immunoprecipitate
B1 | immunoprecipitate

test system: PG9 Fab; assay: Gel filtration of epitope scaffold complex with PG9 Fab; type: binding, human; conditions: not given
Description: (§2) The supernatants of all wells expressing minimal epitope scaffolds were tested for binding to PG9, CH01, CH03, PGT145 and PGT142 antibodies through ELISA assays in which the supernatant was diluted 5-fold in PBS and incubated on nickel coated plates. […] Some, such as 2ZJR_A, were run over a protein A column coated in PG9 which was subsequently cleaved from the column resulting in an eluted complex consisting of the scaffolds and the PG9 Fab.

Molecule | complex with PG9 Fab through gel filtration
B3 | intact complex
B4 | forms a stable complex

test system: monoclonal antibody PG9; assay: ELISA of minimal epitope scaffolds with PG9; type: binding, human; conditions: GnTI- cell expression
Description: as §2

Molecule | binding to monoclonal antibody PG9
B5 | bind
B6 | bind
B7 | bind
B8 | bind
B9 | bind
B10 | bind
B11 | bind
B12 | bind
B13 | bind
B14 | bind
B3 | bind
B15 | bind
B16 | bind
